Results published in EP0832229B1.
Several values for one entry are separate records, joined by “and”; a condition that tells them apart may be missing. Equal values may be shown once.

Experiments:
[1] = molecular target: CD40/Fc fusion protein (extracellular domain of human CD40 fused to the Fc domain of human IgG1) (human) (UniProt P25942); assay: BIAcore SPR, CD40/Fc captured by goat anti-human IgG1 Fc; experiment 1
[2] = molecular target: CD40/Fc fusion protein (extracellular domain of human CD40 fused to the Fc domain of human IgG1) (human) (UniProt P25942); assay: BIAcore SPR, CD40/Fc captured by goat anti-human IgG1 Fc; K2 (site 2); experiment 1
[3] = molecular target: CD40/Fc fusion protein (extracellular domain of human CD40 fused to the Fc domain of human IgG1) (human) (UniProt P25942); assay: BIAcore SPR, CD40/Fc captured by goat anti-human IgG1 Fc; K1 (site 1); experiment 1
[4] = molecular target: CD40/Fc fusion protein (extracellular domain of human CD40 fused to the Fc domain of human IgG1) (human) (UniProt P25942); assay: BIAcore SPR, CD40/Fc captured by goat anti-human IgG1 Fc; experiment 2
[5] = molecular target: CD40/Fc fusion protein (extracellular domain of human CD40 fused to the Fc domain of human IgG1) (human) (UniProt P25942); assay: BIAcore SPR, CD40/Fc captured by goat anti-human IgG1 Fc; K1 (site 1); experiment 2
[6] = molecular target: CD40/Fc fusion protein (extracellular domain of human CD40 fused to the Fc domain of human IgG1) (human) (UniProt P25942); assay: BIAcore SPR, CD40/Fc captured by goat anti-human IgG1 Fc; K2 (site 2); experiment 2
CD40 on B cells = CD40 on B cells (UniProt P25942); assay: cell-based or functional assay
[7] = molecular target: CD40/Fc fusion protein (extracellular domain of human CD40 fused to the Fc domain of human IgG1) (human) (UniProt P25942); assay: BIAcore SPR substantially as in Example 3; K1; average of two preparations
[8] = molecular target: CD40/Fc fusion protein (extracellular domain of human CD40 fused to the Fc domain of human IgG1) (human) (UniProt P25942); assay: biosensor (BIAcore) assay substantially as in Example 3, CD40/Fc captured
[9] = molecular target: CD40/Fc fusion protein (extracellular domain of human CD40 fused to the Fc domain of human IgG1) (human) (UniProt P25942); assay: BIAcore SPR substantially as in Example 3; K2; average of two preparations

Row | Molecule | Site 1 (mol/mol CD40/Fc) (mol/mol CD40/Fc) [1] | Site2 (mol/mol CD40/Fc) (mol/mol CD40/Fc) [1] | Ka [2] | Ka [3] | Site2 (mol/mol CD40/Fc) (mol/mol CD40/Fc) [4] | further results
1 | dimeric human CD40L (CD40L/Fc) (from UniProt P27548 47-260) (Fc fusion) | 0.013 | 0.049 | 7e+08 M⁻¹ | 1.6e+11 M⁻¹ |  | 
2 | trimeric murine CD40L (oligomerizing zipper, Flag octapeptide, extracellular region of murine CD40L) (from UniProt P27548 47-260) (ligand) | 0.02 | 0.44 | 1.6e+08 M⁻¹ | 6e+10 M⁻¹ |  | 
3 | trimeric human CD40L (CD40L/"leucine zipper"): oligomerizing zipper followed by the extracellular region of human CD40L, amino acids 51-261 (ligand) | 0.04 | 0.68 | 7.5e+07 M⁻¹ | 5e+09 M⁻¹ | 0.41 | Site 1 (mol/mol CD40/Fc) (mol/mol CD40/Fc) [4]: 0.26; Ka [5]: 6.6e+08 M⁻¹; Ka [6]: 2.6e+07 M⁻¹
4 | monomeric human CD40L (comprising solely the portion of the extracellular domain most homologous to TNF) (from UniProt P27548 112-260) (ligand) |  |  |  |  | 1.2 and 1.27 | 
5 | wild type CD40 ligand/zipper domain fusion protein (WT) expressed in yeast (ligand, part only; not given: leucine zipper sequence, part only) chain, part: MQRGDEDPQIAAHVVSEANSNAASVLQWAKKGYYTMKSNLVMLENGKQLTVKREGLYYVYTQVTFCSNREPSSQRPFIVGLWLKPSSGSERILLKAANTHSSSQLCEQQSVHLGGVFELQAGASVFVNVTEASQVIHRVGFSSFGLLKL |  |  |  |  |  | B-cell proliferation (U/µg), Experiment 1 (CD40 on B cells): 77 U/µg; B-cell proliferation (U/µg), Experiment 2 (CD40 on B cells): 15 U/µg; Ka [7]: 7.4e+08 M⁻¹; Ka [8]: 7.7e+07 M⁻¹; Ka [9]: 3e+07 M⁻¹
